The nanobody polyreactivity screen of Harvey et al. (2022)

Experiment: yeast display, Sf9 membrane polyspecificity reagent, FACS + sequencing; frameworks hold sequencing errors
In short: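 A nanobody's polyreactivity label depends on the gate it was sorted from. Yeast display cells were stained with 10% biotinylated, detergent-solubilized Sf9 membrane reagent for 1 hour at 4 °C, enriched on streptavidin microbeads and sorted by FACS. The low and high (top ~1%) gates were set on anti-HA fluorescence for expression and streptavidin fluorescence for reagent binding.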

Which “polyreactivity (PSR sort gate)” value does the source give for “QVQLVESGGGLVQAGGSLRLSCAASGRIFRWYAMGWYRQAPGKERELVAAISYSGGSTYYADSVKGRFTISRDNAKNTVYLQMNRLKPEDTAVYYCNAVLYTPVYDGFDSWGQGTQVTVSS” here?
The value was “high polyreactivity”.

Which “polyreactivity (PSR sort gate)” value does the source give for “QVQLVESGGGLVQAGGSLRLSCAASGRIFRWYAMGWYRQAPGKERELVATISSTGGSTYYADSVKGRFTISRDNAKNTVYLQMNSLKPEDTAVYYCAVDPRGHEGVRYNYWGQGTQVTVSS” here?
The value was “low polyreactivity”.

For “QVQLVESGGGLVQAGGSLRLSCAASGRIFRYKAMGWYRQAPGKERELVAAISGSGGSTYYADSVKGRFTISRDNAKNTVYLQMNSLKPEDTAVYYCNALYWIFNHGGYDYWGQGTQVTVSS”, which “polyreactivity (PSR sort gate)” value is on record?
The value was “low polyreactivity”.

Which “polyreactivity (PSR sort gate)” value does the source give for “QVQLVESGGGLVQAGGSLRLSCAASGRIFRYNAMGLYRQAPGKERELVAAISRGGSSTYYADSVKGRFTISRDNAKNTVYLQMNSLKPEDTAVYYCNARSVVREFNYWGQGTQVTVSS” here?
Its value is “high polyreactivity”.

With “QVQLVESGGGLVQAGGSLRLSCAASGRIFRYNAMGWYRQAPGKERELVAAISFSTTSPYYADSVKGRFTISRDNAKNTVYLQMNSLKPEDTAVYNCNTPGLPIDSEYDYWGQGTQVTVSS” as the sequence, how does the “polyreactivity (PSR sort gate)” value read?
Its value is “low polyreactivity”.

With “QVQLVESGGGLVQAGGSLRLSCAASGRIFRYNAMGWYRQAPGKERELVAAISTSGTRTFYADSVKGRFTISRDNAMKTVYLQMNSVKPEDTAVYYCNKVAGPGKLGPYYYWGQGTQVTVSS” as the sequence, how does the “polyreactivity (PSR sort gate)” value read?
Its value is “high polyreactivity”.

With “QVQLVESGGGLVQAGGSLRLSCAASGRIFRYNAMGWYRQAPGKERELVAAITNGGSTNYADSVKGRFTISRDNAKNTVYLQMNSLKPEDTAVYYCNAQGRRYSQRYYYWGQGTQVTVSS” as the sequence, how does the “polyreactivity (PSR sort gate)” value read?
Its value is “high polyreactivity”.

For “QVQLVESGGGLVQAGGSLRLSCAASGRIFRYNAMGWYRQAPGKERELVASITSAGSTIYADSVKGRFTISRDNAKNTVYLQMNSLKPEDTAVYYCNKRRAYGYYLFDYWGQGTQVTVSS”, which “polyreactivity (PSR sort gate)” value is on record?
The value was “high polyreactivity”.

For “QVQLVESGGGLVQAGGSLRLSCAASGRIFRYNAMGWYRQAPGKERELVATISRGGGSTYYADSVKGRFTISLDNAKNTVYLQMNSLKPEDTAVYYCATRYYQDIVGYSRYDYWGQGTQVTVSS”, which “polyreactivity (PSR sort gate)” value is on record?
The value was “high polyreactivity”.

For “QVQLVESGGGLVQAGGSLRLSCAASGRIFRYNTMGWYRQAHGKERELVAAIDRGSSTNYADSVKGRFTISRDNAKNTVYLQMNSLKPEDTAVYYCAARVFRPYGSLYDYWGQGTQVTVSS”, which “polyreactivity (PSR sort gate)” value is on record?
The value was “high polyreactivity”.

For “QVQLVESGGGLVQAGGSLRLSCAASGRIFRYYAKGWYRQATGKERELVAAISWSGGSTYYADSVKGRFTISRDNAKNTVYLQMHSLKPEDTAVYYCNAAVTQFTHRWRRRITFDYWGQGTQVTVSS”, which “polyreactivity (PSR sort gate)” value is on record?
The value was “high polyreactivity”.

With “QVQLVESGGGLVQAGGSLRLSCAASGRIFRYYAMGWYRPAPGKERELVAAITRSGGITYYADSVKGRFTISRDNAKNTVYLQLNSLKPEDTAVYYCAVRGAGWPSVRAFGYDYWGQGTQVTVSS” as the sequence, how does the “polyreactivity (PSR sort gate)” value read?
The value was “high polyreactivity”.

Which “polyreactivity (PSR sort gate)” value does the source give for “QVQLVESGGGLVQAGGSLRLSCAASGRIFRYYAMGWYRQAPGKEREFVAGISWRGSSTYYADSVKGRFTISRDNAKNTVYLQMNSLKPEDTAVYYCNRDQSNIPVTGGRFYYWGQGTQVTVSS” here?
Its value is “high polyreactivity”.

For “QVQLVESGGGLVQAGGSLRLSCAASGRIFRYYAMGWYRQAPGKERELVAAINSGGSTKYADSVKGRFTISRDNAKNTVYLQMNSLKPEDTAVYYCAAVYTPDSRYDYWGQGTQVTVSS”, which “polyreactivity (PSR sort gate)” value is on record?
Its value is “high polyreactivity”.

With “QVQLVESGGGLVQAGGSLRLSCAASGRIFRYYAMGWYRQAPGKERELVAAISDSSGSTYYADSVKGRFTISRDNAKNTVYLQMNSLKPEDTAVYYCRYYFGSGFYYWGQGTQVTVSS” as the sequence, how does the “polyreactivity (PSR sort gate)” value read?
The value was “high polyreactivity”.

Which “polyreactivity (PSR sort gate)” value does the source give for “QVQLVESGGGLVQAGGSLRLSCAASGRIFRYYAMGWYRQAPGKERELVAAISRGGSTNYADSVKGRFTISRDNAKNTVYLQMNSLKPEDTAVYYCAAVYHSRVWYGYDSKFEYWGQGTQVTVSS” here?
The value was “high polyreactivity”.

For “QVQLVESGGGLVQAGGSLRLSCAASGRIFRYYAMGWYRQAPGKERELVAAISSRGGSTYYADSVKGRFTISRDNAKNSVYLQMNSLKPEDTAVYFCDKAVFYGPSERNYGLDYWGQGTQVTVSS”, which “polyreactivity (PSR sort gate)” value is on record?
The value was “high polyreactivity”.

For “QVQLVESGGGLVQAGGSLRLSCAASGRIFRYYAMGWYRQAPGKERELVAAITRGGSTNYADSVKGRFTISRDNAKNTVYLQMNSLKPEDTAVYYCAVRGGYTWPTYNYWGQGTQVTVSS”, which “polyreactivity (PSR sort gate)” value is on record?
The value was “high polyreactivity”.

Which “polyreactivity (PSR sort gate)” value does the source give for “QVQLVESGGGLVQAGGSLRLSCAASGRIFRYYAMGWYRQAPGKERELVASISSGGSTNYADSVKGRFTISRDNAKNTVYLQMNSLKPEDTAVYYCATVRRSTGGRLYYWGQGTQVTVSS” here?
Its value is “high polyreactivity”.

For “QVQLVESGGGLVQAGGSLRLSCAASGRIFRYYAMGWYRQAPGKERELVASITYSGGRTNYADSVKGRFTISRDNAKNTVYLQMNSLKPEDTAVYYCNSAYVYYYPHYRYAPTAVDYDYWGQGTQVTVSS”, which “polyreactivity (PSR sort gate)” value is on record?
The value was “low polyreactivity”.

Which “polyreactivity (PSR sort gate)” value does the source give for “QVQLVESGGGLVQAGGSLRLSCAASGRIFRYYAMGWYRQAPGKERELVATISSSGGSTYYADSVKGRFTISRDNAKNTVYLQMKSLKPEDTAVYYCAADWYGYRQFHGYYWGQGTQVTVSS” here?
The value was “high polyreactivity”.

For “QVQLVESGGGLVQAGGSLRLSCAASGRIFRYYAMGWYRQAPGKERELVAVISSSGGSTNYADSVKGRFTISRDNAKNTVYLQMNSLKPEDTAVYYCNAYGAYGGTGDYWGQGTQVTVSS”, which “polyreactivity (PSR sort gate)” value is on record?
The value was “high polyreactivity”.

With “QVQLVESGGGLVQAGGSLRLSCAASGRIFRYYAMGWYRQSPGKEREFVAAINWSGGSTYYADSVKGRITISRDNAKNTVYLQMNSLKREDTAVYYCAALITQSYDYWGQGSQVTVSS” as the sequence, how does the “polyreactivity (PSR sort gate)” value read?
The value was “high polyreactivity”.

With “QVQLVESGGGLVQAGGSLRLSCAASGRIFRYYDMGWYRPAPGKERELVAAINSGGSTKYADSVKGRFTISRDNAKNTVYLQMNSLKPEDTAVYYCAADKARAWGYDYWGQGTQVTVSS” as the sequence, how does the “polyreactivity (PSR sort gate)” value read?
Its value is “high polyreactivity”.

For “QVQLVESGGGLVQAGGSLRLSCAASGRIFRYYDMGWYRQAPGKEREFVAAITRSGAITYYADSVKGRFTISRDNAKNTVYLQMNSLKPEDTAVYYCAARYWSKFGYWGQGTQVTVSS”, which “polyreactivity (PSR sort gate)” value is on record?
Its value is “low polyreactivity”.

For “QVQLVESGGGLVQAGGSLRLSCAASGRIFRYYTMGWYRPAPGKERELVAAISWTGASTYYADSVKGRFTISRDNAKNTVYLQMNSLKPEDTAVYYCAADSYIAHHGFAMDYWGQGTQVTVSS”, which “polyreactivity (PSR sort gate)” value is on record?
The value was “low polyreactivity”.

For “QVQLVESGGGLVQAGGSLRLSCAASGRIFRYYVMGWYRQAPGKEREFVASISGRGASTYYADSVKGRFTISRDNAKNTVYLQMNSLKPEDTAVYYCNADVWLLSYFPEYDYWGQGTQVTVSS”, which “polyreactivity (PSR sort gate)” value is on record?
Its value is “low polyreactivity”.

With “QVQLVESGGGLVQAGGSLRLSCAASGRIFRYYVMGWYRQAPGKERELVAAISRSGGTTYYADSVKGRFTISRDNAKNTVYLQMNSLKPEDTAVYYCAAVYGRDPGDYWGQGTQVTVSS” as the sequence, how does the “polyreactivity (PSR sort gate)” value read?
Its value is “high polyreactivity”.

With “QVQLVESGGGLVQAGGSLRLSCAASGRIFRYYVMGWYRQAPGKERELVASITRVGRTNYADSVKGRFTISRDNAKNTVYLQMNSLKPEDTAFYYCAADVWWSTYRVTDDYWGQGTQVTVSS” as the sequence, how does the “polyreactivity (PSR sort gate)” value read?
The value was “high polyreactivity”.

With “QVQLVESGGGLVQAGGSLRLSCAASGRIFSAYTMGWYRQAPGKERELVAAITWSGGTTYYADSVKGRFTISRDNAKNTVYLQINSLKPEDTAVYYCAAESSWYVLYGSYYRSGLEYWGQGTLVTVSS” as the sequence, how does the “polyreactivity (PSR sort gate)” value read?
The value was “low polyreactivity”.

Which “polyreactivity (PSR sort gate)” value does the source give for “QVQLVESGGGLVQAGGSLRLSCAASGRIFSEYAMGWYRQAPGKERELVASISTSGGSTYYADSVKGRFTISRDNAKNTVYLQMNSLKPEDTAVYYCNVAYSRYPSYTYGYDHWGQGTQVTVSS” here?
Its value is “high polyreactivity”.

For “QVQLVESGGGLVQAGGSLRLSCAASGRIFSFNAMGCYRQATGKERELVAAISWSTGSTFYADSVKGRFTISRDYAKNTVFLQMNSLKPEDTAVYYCAREYYYRRGFFLRGYWGQGTQVTVSS”, which “polyreactivity (PSR sort gate)” value is on record?
The value was “high polyreactivity”.

With “QVQLVESGGGLVQAGGSLRLSCAASGRIFSFNGMGWYRQAPGKERELVAAITSSGGRTYYADSVKGRFTISRDNAKNTVYLQMNSLKPEDTAVYYCAAELAWEYYWGQGTQVTVSS” as the sequence, how does the “polyreactivity (PSR sort gate)” value read?
The value was “low polyreactivity”.

Which “polyreactivity (PSR sort gate)” value does the source give for “QVQLVESGGGLVQAGGSLRLSCAASGRIFSFYAMGWYRQAPGKERELVATISDGGATTYYADSVKGRFTISRDNAKNTVYLQMNSLKPEDTAVYYCAADKRGRPGLPDYDSWGQGTQVTVSS” here?
The value was “low polyreactivity”.

With “QVQLVESGGGLVQAGGSLRLSCAASGRIFSGNAMGWYRQAPGKERELVAAISGSGGSTYYADSVKGRFTISRDNAKNTVYLQMNSLKPEDTAVYYCADRYTVRRSGYWGQGTQVTVSS” as the sequence, how does the “polyreactivity (PSR sort gate)” value read?
The value was “high polyreactivity”.

For “QVQLVESGGGLVQAGGSLRLSCAASGRIFSGNAMGWYRQAPGKERELVAAISRGGSTDYADSVKGRFTISRDNAKNTVYLQMNSLKPEDTAVYYCAARVNGKRRRYDYWGQGTQVTVSS”, which “polyreactivity (PSR sort gate)” value is on record?
Its value is “high polyreactivity”.

With “QVQLVESGGGLVQAGGSLRLSCAASGRIFSGYAMGWYRKAPGKERELVAAINRGGDTNYADSVKGRFTISRDNAKNTVYLQMNSLKPEDTAVYYCAAQYSGRYRRVPKSYPDRGDYWGQGTQVTVSS” as the sequence, how does the “polyreactivity (PSR sort gate)” value read?
The value was “low polyreactivity”.

For “QVQLVESGGGLVQAGGSLRLSCAASGRIFSGYAMGWYRQAPGKERELVAAITSGGSTNYADSVKGRFTISRDNAKNTVYLQMNSLKPVDTAVYYCAKYYFQYKHDYWGQGTQVTVTS”, which “polyreactivity (PSR sort gate)” value is on record?
The value was “low polyreactivity”.

With “QVQLVESGGGLVQAGGSLRLSCAASGRIFSGYAMGWYRQAPGKERELVAAITWNGVSTYYADSVKGRFTISRDNAKNTVYLQMNSLKPEDTAVYYCNAEVYSDPYNDHDYWGQGTQVTVSS” as the sequence, how does the “polyreactivity (PSR sort gate)” value read?
Its value is “low polyreactivity”.

For “QVQLVESGGGLVQAGGSLRLSCAASGRIFSHTVMGWYRQAPGKEGELVADISSSGGSTYYADSVKWRFTISRDNAKNTVDFQKNSLKPEYTAVYYCAAAPWASGTDEYWGHGTQVTVSS”, which “polyreactivity (PSR sort gate)” value is on record?
Its value is “low polyreactivity”.

For “QVQLVESGGGLVQAGGSLRLSCAASGRIFSHYAMGWYRQAPGKERELVASITRGGTRTYADSVKGRFTISRDNAKNTVYLQMNSLKPEDSAVYYCAADGYAYYYEWSQGDLSYDHWGQVTQVTVSS”, which “polyreactivity (PSR sort gate)” value is on record?
The value was “low polyreactivity”.

With “QVQLVESGGGLVQAGGSLRLSCAASGRIFSIYAMGWYRQAPGKERELVADITWTGGGTYYADSVKGRFTISRDNAKNTVYLQMNSLKPEDTAVYYCAADLYRKWWYDYWGQGTQVTVSS” as the sequence, how does the “polyreactivity (PSR sort gate)” value read?
The value was “high polyreactivity”.

For “QVQLVESGGGLVQAGGSLRLSCAASGRIFSIYAMGWYRQAPGKERELVASINSGDSTYYADSVKGRFTISRDNAKNTVYLQMNSLKPEDTAVYYCAATLVTVPLYRFDYWGQGTQVTVSS”, which “polyreactivity (PSR sort gate)” value is on record?
The value was “low polyreactivity”.
